Target: the molecule itself
Assay: crystal structure

B1: LecA, galactose-binding lectin of Pseudomonas aeruginosa (natural protein)
chain: AWKGEVLANNEAGQVTSIIYNPGDVITIVAAGWASYGPTQKWGPQGDREHPDQGLICHDAFCGALVMKIGNSGTIPVNTGLFRWVAPNNVQGAITLIYNDVPGTYGNNSGSFSVNIGKDQS
stoichiometry N: 4

From paper PMC9300185 (Chembiochem, 2021)
